Data from patent publication US20060035245, “Modulators of enzymatic nucleic acid elements mobilization” (published 2006).

Biological target: Tn5 transposase hyperactive mutant (EK54, MA56, LP372) (UniProt Q46731 Q46731:1-476, E54K,M56A,L372P)
Assay: EMSA; complex assembly, inhibited by small molecules with IC50 3.5-46 uM
Settings: chain copies: 2; label: fluorescein 5' end of transferred strand
Protocol: For FP analysis, 60 μL reactions were analyzed using the FP protocol on a Wallac Victor V plate reader and a 7% native polyacrylamide gel was used in gel shift assays. For compound screening and subsequent analysis, 1 μL of either DMSO or test compound (final concentration 80 μM) was added to the synapsis reactions. Compound screening was carried out using a Beckman Coulter Biomek FX in a 384 well format. […] IC₅₀ values were obtained by fitting inhibitor titration data (0, 0.01, 0.05, 0.1, 0.5, 2.5, 10, 20, 35, 50, 100, 200, 400, 800 μM) to an exponential decay.

B1: 60 bp Tn5 substrate for inhibitor verification (dsDNA)
DNA 1: GGCCACGACACGCTCCCGCGCTGTCTCTTATACACATCTTGAGTGAGTGAGCATGCATGT
DNA 2: ACATGCATGCTCACTCACTCAAGATGTGTATAAGAGACAGCGCGGGAGCGTGTCGTGGCC
binding result: binds
